Data as given in PMC4605427.
pKd: −log10 of the molar value.

What was measured:
[1] = molecular target: phosphorylated cytosolic domain of the TCR γ-chain (pCD3γCD) (UniProt P09693); test: BLI
[2] = molecular target: GST-pCD3γCD fusion protein (UniProt P09693); test: ELISA

Substance	KD2 (weak set), fold against its KD1 [1]	koff1, ratio against AADN and tSH2 [1]	koff2 (weak set), fold against its koff1 [1]	kon1, fold against AADN and tSH2 [1]	kon2 (weak set), fold against its kon1 [1]	fold concentration needed, against YY, to compete similarly [2]	pKd [1]
ZAP-70 phenylalanine mutant Y315/Y319F, kinase-dead (FFDN) (from UniProt P43403 1-619) (enzyme)	10 fold	0.5 fold	20 fold	2 fold	2 fold	3 fold	–
recombinant tSH2 module of ZAP-70 (aa 1–256) (from UniProt P43403 1-256) (domain or fragment)	–	–	–	–	–	–	8.00
kinase-dead D461N mutant of ZAP-70 (YYDN) (from UniProt P43403 1-619) (enzyme)	10 fold	0.5 fold	20 fold	2 fold	2 fold	–	–
